{"source": "paper PMC11352367", "about": "(Cells, 2024)", "molecular_target": "the molecule itself", "assay": "high-speed atomic force microscopy; α-actinin alone (50 nM) on bare mica, observation buffer, room temperature", "data": [{"protein": "Rabbit skeletal muscle-derived α-actinin (natural protein) MNQIEPGVQYNYVYDEDEYMIQEEEWDRDLLLDPAWEKQQRKTFTAWCNSHLRKAGTQIENIEEDFRNGLKLMLLLEVISGERLPKPDRGKMRFHKIANVNKALDYIASKGVKLVSIGAEEIVDGNVKMTLGMIWTIILRFAIQDISVEETSAKEGLLLWCQRKTAPYRNVNIQNFHTSWKDGLGLCALIHRHRPDLIDYSKLNKDDPIGNINLAMEIAEKHLDIPKMLDAEDIVNTPKPDERAIMTYVSCFYHAFAGAEQAETAANRICKVLAVNQENERLMEEYERLASELLEWIRRTIPWLENRTPEKTMKAMQKKLEDFRDYRRKHKPPKVQEKCQLEINFNTLQTKLRISNRPAFMPSEGKMVSDAGAWQRLEQAEKGYEEWLLNEIRRLERLEHLAEKFRQKASTHETWAYGKEQILLQKDYESASLTEVRALLRKHEAFESDLAAHQDRVEQIAAIAQELNELDYHDAVNVNDRCQKICDQWDRLGTLTQKRREALERTEKLLETIDQLHLEFAKRAAPFNNWMEGAMEDLQDMFIVHSIEEIQSLITAHEQFKATLPEADGERQSIMAIQNEVEKVIQSYNIRISSSNPYSTVTMDELRAKWDKVKQLVPIRDQSLQEELARQHANERLRRQFAAQANAIGPWIQNKMEEIARSSIQITGALEDQMNQLKQYEHNIINYKNNIDKLEGDHQLIQEALVFDNKHTNYTMEHIRVGWELLLTTIARTINEVETQILTRDAKGITQEQMNEFRASFNHFDRRKNGLMDHEDFRACLISMGYDLGEAEFARIMTLVDPNGQGTVTFQSFIDFMTRETADTDTAEQVIASFRILASDKPYILAEELRRELPPDQAQYCIKRMPAYSGPGSVPGALDYTAFSSALYGESDL", "values": [{"measurement": "stoichiometry N", "value": 2}]}]}
